Measured values as given in IntAct's records for PubMed 34948388.

B1: Multifunctional methyltransferase subunit TRM112-like protein (Homo sapiens), Q9UI30 (parent)
chain: MKLLTHNLLSSHVRGVGSRGFPLRLQATEVRICPVEFNPNFVARMIPKVEWSAFLEAADNLRLIQVPKGPVEGYEENEEFLRTMHHLLLEVEVIEGTLQCPESGRMFPISRGIPNMLLSEEETES
partner: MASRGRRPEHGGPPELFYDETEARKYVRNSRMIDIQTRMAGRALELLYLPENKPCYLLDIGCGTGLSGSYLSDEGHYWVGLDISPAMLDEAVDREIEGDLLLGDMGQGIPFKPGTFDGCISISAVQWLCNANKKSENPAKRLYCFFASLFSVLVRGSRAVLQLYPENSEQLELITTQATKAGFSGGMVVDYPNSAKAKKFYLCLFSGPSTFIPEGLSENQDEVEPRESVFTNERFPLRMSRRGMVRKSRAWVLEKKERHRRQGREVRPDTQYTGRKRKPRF
B2: Multifunctional methyltransferase subunit TRM112-like protein (Homo sapiens), Q9UI30 (parent)
chain: B1 chain
partner: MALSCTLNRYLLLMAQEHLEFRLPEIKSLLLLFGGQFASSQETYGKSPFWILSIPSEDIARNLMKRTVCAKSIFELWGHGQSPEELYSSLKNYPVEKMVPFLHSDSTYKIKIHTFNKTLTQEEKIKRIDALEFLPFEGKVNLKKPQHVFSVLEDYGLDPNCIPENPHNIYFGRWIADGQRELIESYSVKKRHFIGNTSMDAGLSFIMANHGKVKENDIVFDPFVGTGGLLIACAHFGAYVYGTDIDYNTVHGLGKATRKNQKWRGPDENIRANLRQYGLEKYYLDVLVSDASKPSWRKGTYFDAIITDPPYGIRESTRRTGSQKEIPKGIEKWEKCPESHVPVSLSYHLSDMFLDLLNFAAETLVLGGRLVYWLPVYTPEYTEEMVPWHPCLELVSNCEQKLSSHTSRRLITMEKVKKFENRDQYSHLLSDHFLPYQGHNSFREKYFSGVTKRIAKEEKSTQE
B3: Multifunctional methyltransferase subunit TRM112-like protein (Homo sapiens), Q9UI30 (parent)
chain: B1 chain
partner: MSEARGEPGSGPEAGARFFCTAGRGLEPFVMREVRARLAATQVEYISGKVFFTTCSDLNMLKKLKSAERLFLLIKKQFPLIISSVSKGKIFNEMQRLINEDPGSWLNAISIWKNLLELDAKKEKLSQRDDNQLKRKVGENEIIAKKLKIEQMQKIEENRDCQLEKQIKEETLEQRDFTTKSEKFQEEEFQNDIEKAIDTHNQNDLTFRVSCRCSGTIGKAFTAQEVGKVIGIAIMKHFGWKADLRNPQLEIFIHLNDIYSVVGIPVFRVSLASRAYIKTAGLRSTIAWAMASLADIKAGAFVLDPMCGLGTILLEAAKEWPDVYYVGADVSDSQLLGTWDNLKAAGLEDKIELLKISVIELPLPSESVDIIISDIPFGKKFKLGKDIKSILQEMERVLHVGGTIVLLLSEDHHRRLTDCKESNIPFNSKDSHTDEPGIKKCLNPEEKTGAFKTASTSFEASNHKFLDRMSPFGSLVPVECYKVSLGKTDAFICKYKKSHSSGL

Variants of: B1
Conditions: with bud23_human BUD23, O43709

effect of a mutation on the interaction	Variant
with no effect	MKLLTHNLLFSHVRGVGSRGFPLRLQATEVRICPVEFNPNFVARMIPKVEWSAFLEAADNLRLIQVPKGPVEGYEENEEFLRTMHHLLLEVEVIEGTLQCPESGRMFPISRGIPNMLLSEEETES [S10F]

Variants of: B2
Conditions: with trm11_human TRMT11, Q7Z4G4

effect of a mutation on the interaction	Variant
with no effect	MKLLTHNLLSSHVRGVGSRGFPLRLQATEVRICPVEFNPNFVARMIPKVEWSAFLEAADNLRLIQVPKGPVEGYEENEEFLRTMHHLLLEVEVIEGTLQCPESGRMFPISRGAPNMLLSEEETES [I113A]
with no effect	MKLLTHNLLSSHVRGVGSRGFPLRLQATEVRICPVEFNPNFVARMIPKVAWSAFLEAADNLRLIQVPKGPVEGYEENEEFLRTMHHLLLEVEVIEGTLQCPESGRMFPISRGIPNMLLSEEETES [E50A]
disrupting interaction strength	MKLLAHNLLSSHVRGVGSRGFPLRLQATEVRICPVEFNPNFVARMIPKVEWSAFLEAADNLRLIQVPKGPVEGYEENEEFLRTMHHLLLEVEVIEGTLQCPESGRMFPISRGIPNMLLSEEETES [T5A]
with no effect	MKLLTHNLLSSHVRGVGSRGFPLRLQATEVRICPVEFNPNFVARAIPKVEWSAFLEAADNLRLIQVPKGPVEGYEENEEFLRTMHHLLLEVEVIEGTLQCPESGRMFPISRGIPNMLLSEEETES [M45A]
with no effect	MKLLTHNWLSSHVRGVGSRGFPLRLQATEVRICPVEFNPNFVARMIPKVEWSAFLEAADNLRLIQVPKGPVEGYEENEEFLRTMHHLLLEVEVIEGTLQCPESGRMFPISRGIPNMLLSEEETES [L8W]
decreasing interaction strength	MKLLTHNLLSSHVRGVGSRGFPLRLQATEVRICPVEFNPNFVARMIPKVEWSAFLEAADNLRLIQVPKGPVEGYEENEEFLRTMHHLLLEVAVIEGTLQCPESGRMFPISRGIPNMLLSEEETES [E92A]
disrupting interaction strength	MKLLTHNLLSSHVRGVGSRGFPLRLQATEVRICPVEFNPNFVARMIPAVEWSAFLEAADNLRLIQVPKGPVEGYEENEEFLRTMHHLLLEVAVIEGTLQCPESGRMFPISRGIPNMLLSEEETES [K48A;E92A]
decreasing interaction strength	MKLLTHNLLSSHVRGVGSRGFPLRLQATEVRICPVEFNPNFVARMIPKVEWSAFLEAADNLRLIQVPKGPVEGYEENEEFLRTMHHLLLEVEVIEGTLQCPESGRMAPISRGIPNMLLSEEETES [F107A]
with no effect	MKLLTHNLLFSHVRGVGSRGFPLRLQATEVRICPVEFNPNFVARMIPKVEWSAFLEAADNLRLIQVPKGPVEGYEENEEFLRTMHHLLLEVEVIEGTLQCPESGRMFPISRGIPNMLLSEEETES [S10F]
with no effect	MKLLTHNLLSSHVRGVGSRGFPLRLQATEVRICPVEFNPNFVARMIPAVEWSAFLEAADNLRLIQVPKGPVEGYEENEEFLRTMHHLLLEVEVIEGTLQCPESGRMFPISRGIPNMLLSEEETES [K48A]

Variants of: B3
Conditions: with thum2_human THUMPD2, Q9BTF0

effect of a mutation on the interaction	Variant
disrupting interaction strength	MKLLTHNLLSSHVRGVGSRGFPLRLQATEVRICPVEFNPNFVARMIPAVEWSAFLEAADNLRLIQVPKGPVEGYEENEEFLRTMHHLLLEVAVIEGTLQCPESGRMFPISRGIPNMLLSEEETES [K48A;E92A]
disrupting interaction strength	MKLLAHNLLSSHVRGVGSRGFPLRLQATEVRICPVEFNPNFVARMIPKVEWSAFLEAADNLRLIQVPKGPVEGYEENEEFLRTMHHLLLEVEVIEGTLQCPESGRMFPISRGIPNMLLSEEETES [T5A]
disrupting interaction strength	MKLLTHNWLSSHVRGVGSRGFPLRLQATEVRICPVEFNPNFVARMIPKVEWSAFLEAADNLRLIQVPKGPVEGYEENEEFLRTMHHLLLEVEVIEGTLQCPESGRMFPISRGIPNMLLSEEETES [L8W]
with no effect	MKLLTHNLLSSHVRGVGSRGFPLRLQATEVRICPVEFNPNFVARMIPKVAWSAFLEAADNLRLIQVPKGPVEGYEENEEFLRTMHHLLLEVEVIEGTLQCPESGRMFPISRGIPNMLLSEEETES [E50A]
disrupting interaction strength	MKLLTHNLLFSHVRGVGSRGFPLRLQATEVRICPVEFNPNFVARMIPKVEWSAFLEAADNLRLIQVPKGPVEGYEENEEFLRTMHHLLLEVEVIEGTLQCPESGRMFPISRGIPNMLLSEEETES [S10F]
disrupting interaction strength	MKLLTHNLLSSHVRGVGSRGFPLRLQATEVRICPVEFNPNFVARMIPKVEWSAFLEAADNLRLIQVPKGPVEGYEENEEFLRTMHHLLLEVEVIEGTLQCPESGRMAPISRGIPNMLLSEEETES [F107A]
disrupting interaction strength	MKLLTHNLLSSHVRGVGSRGFPLRLQATEVRICPVEFNPNFVARMIPAVEWSAFLEAADNLRLIQVPKGPVEGYEENEEFLRTMHHLLLEVEVIEGTLQCPESGRMFPISRGIPNMLLSEEETES [K48A]
disrupting interaction strength	MKLLTHNLLSSHVRGVGSRGFPLRLQATEVRICPVEFNPNFVARMIPKVEWSAFLEAADNLRLIQVPKGPVEGYEENEEFLRTMHHLLLEVAVIEGTLQCPESGRMFPISRGIPNMLLSEEETES [E92A]
disrupting interaction strength	MKLLTHNLLSSHVRGVGSRGFPLRLQATEVRICPVEFNPNFVARAIPKVEWSAFLEAADNLRLIQVPKGPVEGYEENEEFLRTMHHLLLEVEVIEGTLQCPESGRMFPISRGIPNMLLSEEETES [M45A]
